The target of data set [1] is ECFP-(spacer) DEVD-keima 616.
Another data set addresses T1, MiCy-DEVD-mKO.
T1 chain: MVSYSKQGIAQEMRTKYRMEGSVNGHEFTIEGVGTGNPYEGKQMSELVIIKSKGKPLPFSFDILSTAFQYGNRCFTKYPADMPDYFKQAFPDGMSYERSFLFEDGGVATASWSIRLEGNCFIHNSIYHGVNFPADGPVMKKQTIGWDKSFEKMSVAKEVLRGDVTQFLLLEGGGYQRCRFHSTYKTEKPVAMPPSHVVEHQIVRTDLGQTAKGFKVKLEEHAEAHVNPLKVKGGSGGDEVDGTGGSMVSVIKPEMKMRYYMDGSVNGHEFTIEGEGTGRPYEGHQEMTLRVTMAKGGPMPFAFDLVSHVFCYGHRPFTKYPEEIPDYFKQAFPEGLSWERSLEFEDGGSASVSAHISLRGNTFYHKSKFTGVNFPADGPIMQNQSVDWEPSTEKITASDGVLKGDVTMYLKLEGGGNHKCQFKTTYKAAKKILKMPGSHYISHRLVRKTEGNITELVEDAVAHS

Data set [2] has as its target keima 616-(spacer) DEVD-ECFP.

B1: Caspase-3 (protein)
chain: SGISLDNSYKMDYPEMGLCIIINNKNFHKSTGMTSRSGTDVDAANLRETFRNLKYEVRNKNDLTREEIVELMRDVSKEDHSKRSSFVCVLLSHGEEGIIFGTNGPVDLKKITNFFRGDRCRSLTGKPKLFIIQACRGTELDCGIETDSGVDDDMACHKIPVEADFLYAYSTAPGYYSWRNSKDGSWFIQSLCAMLKQYADKLEFMHILTRVNRKVATEFESFSFDATFHAKKQIPCIVSMLTKELYFYH
Regarding B1, the “amplitude of the fluorescence cross-correlation function, Gcross(0)” value in data set [1] is recorded as “A rapid decrease in Gcross(0) was observed as a result of addition of Caspase-3”; with EGFP-DEVD-mRFP1 (x2), “A decrease in Gcross(0) was observed as a result of addition of Caspase-3”; in data set [2] it was “A rapid decrease in Gcross(0) was observed as a result of addition of Caspase-3”. The “fluorescence spectrum (FRET, excitation at 440 nm) before and after the reaction with Caspase-3” value with MiCy-DEVD-mKO is “after the addition thereof, FRET disappeared due to the cleavage of the linker and the fluorescence peak (559 nm) of mKO thereby disappeared, so that only the fluorescence peak (495 nm) of MiCy remained”. The “SDS-PAGE and Native-PAGE bands after the reaction with Caspase-3” value in data set [2] was “When keima 616-DEVD-ECFP was reacted with Caspase-3, the bands with the sizes of keima 616 and ECFP could be confirmed”.

Values taken from patent publication US20070292909.
